Patent US20050187160A1
“And” between values parts separate entries of the source, which are not always exact repeats. Identical values can stand only once.

Molecular target: T1, rabbit GH receptor (full length, stably expressed on murine FDC-P1 cells, GH-R4 line) (rabbit) (UniProt P19941)
T1 sequence (looked up): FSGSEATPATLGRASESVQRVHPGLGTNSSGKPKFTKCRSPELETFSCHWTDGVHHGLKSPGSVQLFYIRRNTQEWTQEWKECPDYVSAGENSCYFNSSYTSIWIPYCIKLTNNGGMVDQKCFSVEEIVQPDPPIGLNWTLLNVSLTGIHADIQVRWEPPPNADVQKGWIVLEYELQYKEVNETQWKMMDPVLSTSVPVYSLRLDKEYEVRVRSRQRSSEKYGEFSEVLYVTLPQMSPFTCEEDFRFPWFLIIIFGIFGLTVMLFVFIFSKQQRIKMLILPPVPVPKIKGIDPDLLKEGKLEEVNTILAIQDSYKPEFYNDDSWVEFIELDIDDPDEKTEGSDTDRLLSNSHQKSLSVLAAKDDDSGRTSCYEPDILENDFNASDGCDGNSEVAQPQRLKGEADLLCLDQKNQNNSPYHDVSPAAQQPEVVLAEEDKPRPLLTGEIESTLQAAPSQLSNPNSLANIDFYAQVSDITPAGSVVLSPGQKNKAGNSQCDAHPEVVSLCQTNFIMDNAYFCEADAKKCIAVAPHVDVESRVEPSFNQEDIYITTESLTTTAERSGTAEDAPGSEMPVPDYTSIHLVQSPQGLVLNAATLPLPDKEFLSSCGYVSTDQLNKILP
Experiment: cell-based or functional assay

Substance: PEG-S144C hGH (mono-PEGylated S144C) (from UniProt P01241 27-217) (ligand)
- EC50, individual experiment, cell proliferation assay (Example 1): 40 ng/mL and 45 ng/mL
- mean EC50 (molar form), cell proliferation assay (Example 1): 2 nM

Substance: PEG-T3C hGH (mono-PEGylated T3C monomer) (from UniProt P01241 27-217) (ligand)
- mean EC50 (molar form), cell proliferation assay (Example 1): 0.07 nM

Substance: hGH cysteine mutein S144C (from UniProt P01241 27-217) (ligand)
- EC50, individual experiment (second value), proliferation of FDC-P1 cells expressing the rabbit GH receptor: 1.1 ng/mL
- Mean EC50, proliferation of FDC-P1 cells expressing the rabbit GH receptor (GH-R4), MTS: 1.6 ng/mL

Substance: hGH cysteine mutein T3C, disulfide-linked homodimer (from UniProt P01241 27-217) (ligand)
- Mean EC50, proliferation of FDC-P1 cells expressing the rabbit GH receptor (GH-R4), MTS: 1.4 ng/mL

Substance: hGH cysteine mutein T148C (from UniProt P01241 27-217) (ligand)
- EC50, individual experiment (T148C-lotA), proliferation of FDC-P1 cells expressing the rabbit GH receptor: 0.4 ng/mL and 0.5 ng/mL
- EC50, individual experiment (T148C-lotB), proliferation of FDC-P1 cells expressing the rabbit GH receptor: 1.5 ng/mL and 1.9 ng/mL and 3.1 ng/mL
- Mean EC50 (T148C-lotA), proliferation of FDC-P1 cells expressing the rabbit GH receptor (GH-R4), MTS: 0.5 ng/mL
- Mean EC50 (T148C-lotB), proliferation of FDC-P1 cells expressing the rabbit GH receptor (GH-R4), MTS: 2.5 ng/mL

Substance: wild-type recombinant human growth hormone (rhGH) secreted to the E. coli periplasm from stII-hGH (from UniProt P01241 27-217) (ligand)
- EC50, individual experiment, proliferation of FDC-P1 cells expressing the rabbit GH receptor: 0.8 ng/mL and 1.1 ng/mL
- Mean EC50, proliferation of FDC-P1 cells expressing the rabbit GH receptor (GH-R4), MTS: 0.8 ng/mL
